Measurements taken from publication doi:10.1101/172809 (bioRxiv, 2017).
Positions count from the first letter of the chain named. Names may count otherwise.

B1: Mitochondrial Dynamics 49, MID49_(126-454) (domain or fragment, human, UniProt Q96C03-1 126-454, looked up)
chain: TLQERLLAFERDRVTIPAAQVALAKQLAGDIALELQAYFRSKFPELPFGAFVPGGPLYDGLQAGAADHVRLLVPLVLEPGLWSLVPGVDTVARDPRCWAVRRTQLEFCPRGSSPWDRFLVGGYLSSRVLLELLRKALAASVNWPAIGSLLGCLIRPSMASEELLLEVQHERLELTVAVLVAVPGVDADDRLLLAWPLEGLAGNLWLQDLYPVEAARLRALDDHDAGTRRRLLLLLCAVCRGCSALGQLGRGHLTQVVLRLGEDNVDWTEEALGERFLQALELLIGSLEQASLPCHFNPSVNLFSSLREEEIDDIGYALYSGLQEPEGLL
B2: Dynamin-Related Protein 1 (DRP1), wild type, full length, isoform 2 (enzyme, human, UniProt O00429-3 1-710, looked up)
chain: MEALIPVINKLQDVFNTVGADIIQLPQIVVVGTQSSGKSSVLESLVGRDLLPRGTGIVTRRPLILQLVHVSQEDKRKTTGEENGVEAEEWGKFLHTKNKLYTDFDEIRQEIENETERISGNNKGVSPEPIHLKIFSPNVVNLTLVDLPGMTKVPVGDQPKDIELQIRELILRFISNPNSIILAVTAANTDMATSEALKISREVDPDGRRTLAVITKLDLMDAGTDAMDVLMGRVIPVKLGIIGVVNRSQLDINNKKSVTDSIRDEYAFLQKKYPSLANRNGTKYLARTLNRLLMHHIRDCLPELKTRINVLAAQYQSLLNSYGEPVDDKSATLLQLITKFATEYCNTIEGTAKYIETSELCGGARICYIFHETFGRTLESVDPLGGLNTIDILTAIRNATGPRPALFVPEVSFELLVKRQIKRLEEPSLRCVELVHEEMQRIIQHCSNYSTQELLRFPKLHDAIVEVVTCLLRKRLPVTNEMVHNLVAIELAYINTKHPDFADACGLMNNNIEEQRRNRLARELPSAVSRDKLIQDSRRETKNVASGGGGVGDGVQEPTTGNWRGMLKTSKAEELLAEEKSKPIPIMPASPQKGHAVNLLDVPVPVARKLSAREQRDCEVIERLIKSYFLIVRKNIQDSVPKAVMHFLVNHVKDTLQSELVGQLYKSSLLDDLLTESEDMAQRRKEAADMLKALQGASQIIAEIRETHLW
B3: DRP1_(G362D), full length, disease-associated mutant (enzyme, human, UniProt O00429-3 1-710, looked up)
chain: B2 chain with G362D

Legend:
[1] = target: B2; experiment: cryo-EM structure
cryo-EM structure = target: the molecule itself; experiment: cryo-EM structure
SEC = target: the molecule itself; experiment: SEC

**Q.** Does B1 bind [1]?
**A.** binds

**Q.** Does B2 bind (cryo-EM structure)?
**A.** binds

**Q.** How did the “stoichiometry N” value (SEC) turn out when B3 was run?
**A.** 2
